Experiments:
[1] = target: the molecule itself; test: SEC-MALS
[2] = target: the molecule itself; test: native gel or EMSA

B1: Cdc13-MOB (middle OB-fold domain, residues 344-496) (domain or fragment, S. cerevisiae, UniProt P32797 344-496, looked up)
chain: KAISYEQLSLASVGSVERLEGKIVGMNPPQFASINEFKYCTLKLYFTQLLPNVPDKVLVPGVNCIEIVIPTRERICELFGVLNCQSDKISDILLLEKPDRISVEVERILWDNDKTASPGMAVWSLKNISTDTQAQAQVQVPAQSSASIDPSRT
stoichiometry N [1]: 2

B2: Cdc13 (full-length S. cerevisiae Cdc13) (natural protein, UniProt P32797 1-924, looked up)
chain: MDTLEEPECPPHKNRIFVSSSKDFEGYPSKAIVPVQFVALLTSIHLTETKCLLGFSNFERRGDQSQEDQYLIKLKFKDRGSERLARITISLLCQYFDIELPDLDSDSGASPTVILRDIHLERLCFSSCKALYVSKHGNYTLFLEDIKPLDLVSVISTISTKSTNSSKHSSSELISECDLNNSLVDIFNNLIEMNRDEKNRFKFVKLIHYDIELKKFVQDQQKVLSQKSKAAAINPFFVPNRLGIPYIESQNEFNSQLMTLNVDEPTTDISNMGEEMHDSADPIEDSDSSTTSSTGKYFSSKSYIQSQTPERKTSVPNNWHDDDSGSKRKRKLSFHSPNASSIRKAISYEQLSLASVGSVERLEGKIVGMNPPQFASINEFKYCTLKLYFTQLLPNVPDKVLVPGVNCIEIVIPTRERICELFGVLNCQSDKISDILLLEKPDRISVEVERILWDNDKTASPGMAVWSLKNISTDTQAQAQVQVPAQSSASIDPSRTRMSKMARKDPTIEFCQLGLDTFETKYITMFGMLVSCSFDKPAFISFVFSDFTKNDIVQNYLYDRYLIDYENKLELNEGFKAIMYKNQFETFDSKLRKIFNNGLRDLQNGRDENLSQYGIVCKMNIKVKMYNGKLNAIVRECEPVPHSQISSIASPSQCEHLRLFYQRAFKRIGESAISRYFEEYRRFFPIHRNGSHLAKLRFDEVKHEPKKSPTTPALAEHIPDLNADVSSFDVKFTDISSLLDSSARLPRPQQTHKSNTLYSCEGRIIAIEYHASDLCFHITNELPLLQTRGLAPERVLQLHIITSKNFAYFFNRSSAYLQRQPLEEKYTQLAQFLGHSFKFNITSSLTLFPDTTVALQIWCPIECTFRELQQQLAHPKVAAAPDSGSLDCAINATVNPLRLLAAQNGVTVKKEEDNDDDAGAVPTS
stoichiometry N [1]: 2
Kd [2]: 5.1 nM
